Usually Km stands for the concentration of substrate that gives half-maximal velocity. Usually kcat stands for the maximal rate divided by the concentration of active sites.

Substrate in this series: CCCCCCCCO
The series can be described thus: GSNOR substrate kinetics with octanol. The series is classed as biochemical, human. The following applies: other: octanol as GSNOR substrate; pH 10.0. On the procedure: GSNOR is an alcohol dehydrogenases and like other members of ADH family, is capable of oxidizing and reducing primary alcohols and aldehydes with the help of a molecule of NAD(H). Octanol was chosen as the substrate in the initial screening assay as it is bulky like GSNO, but has 200-fold higher KM value (1 mM) and a kcat value (200 min-1) that is more than 2 order of magnitude lower than that of GSNO. This allows the initial velocity conditions to prevail for a period up to 10 min (data not shown) and it enables conducting a large number of concurrent assays in a384 well plate format. The pH of the assay was adjusted to pH 10 in order to get significant rate of oxidation of octanol in the absence of compounds. The screening for GSNOR inhibitors was performed in the presence of saturating concentration of NAD^+ and an un-saturating concentration of octanol thereby increase the probability of identifying compounds that bind, only or primarily in the GSNO binding site of GSNOR. This was deemed desirable as there are many dehydrogenases inside the cells and compounds binding in the coenzyme binding site are more likely to be nonspecific inhibitors of GSNOR, than compounds that bind primarily to the form of GSNOR that binds GSNO.

B1: GSNOR (Homo sapiens) (protein)
chain: MANEVIKCKAAVAWEAGKPLSIEEIEVAPPKAHEVRIKIIATAVCHTDAYTLSGADPEGCFPVILGHEGAGIVESVGEGVTKLKAGDTVIPLYIPQCGECKFCLNPKTNLCQKIRVTQGKGLMPDGTSRFTCKGKTILHYMGTSTFSEYTVVADISVAKIDPLAPLDKVCLLGCGISTGYGAAVNTAKLEPGSVCAVFGLGGVGLAVIMGCKVAGASRIIGVDINKDKFARAKEFGATECINPQDFSKPIQEVLIEMTDGGVDYSFECIGNVKVMRAALEACHKGWGVSVVVGVAASGEEIATRPFQLVTGRTWKGTAFGGWKSVESVPKLVSEYMSKKIKVDEFVTHNLSFDEINKAFELMHSGKSIRTVVKI
B1: the Km is 1000 µM and the kcat worked out at 3.33 s⁻¹.

These data come from patent US9198909B1, “Materials and methods for inhibiting mamalian S-nitrosoglutathione reductase” (Indiana University Research and Technology Corporation, priority 2007, dated 2015).
